Values of other authors as cited in publication PMC3417354.
pKd: −log10 of the molar value.

Biological target: PCNA (Homo sapiens) (UniProt P12004)
Sequence (P12004 whole entry): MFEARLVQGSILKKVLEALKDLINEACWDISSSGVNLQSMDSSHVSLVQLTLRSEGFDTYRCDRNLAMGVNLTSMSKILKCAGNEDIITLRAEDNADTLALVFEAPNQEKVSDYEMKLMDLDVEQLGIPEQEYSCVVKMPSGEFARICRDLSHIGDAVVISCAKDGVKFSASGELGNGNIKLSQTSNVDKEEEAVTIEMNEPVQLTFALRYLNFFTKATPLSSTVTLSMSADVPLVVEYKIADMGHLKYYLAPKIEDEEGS

p21 peptide 141-160, sequence (P38936 141-160): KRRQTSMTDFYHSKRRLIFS

pKd: 7.06
Substance: p21 peptide 141-160 (from UniProt P38936)
